According to patent publication US20200223889A1 (Novo Nordisk, published 2020):
Positions of bridges follow the written chain, without caps; N, C: chain ends. Non-standard residues stand in square brackets, D forms with d. Lys(CH2CO2H)2 = N[C@@H](CCCCN(CC(=O)O)CC(=O)O)C(=O)O; Phe(3,4-(OMe)2) = COc1ccc(C[C@H](N)C(=O)O)cc1OC; Ser(ΨH,HPro) = O=C(O)[C@@H]1COCN1; Hyp = O=C(O)[C@@H]1C[C@@H](O)CN1; Pen = CC(C)(S)[C@H](N)C(=O)O; Orn = NCCC[C@H](N)C(=O)O; Thz = O=C(O)[C@@H]1CSCN1; Dab = NCC[C@H](N)C(=O)O

B1: Chem. 2 (peptide)
peptide: cyclo(CGH[dF]RWCGH[dF]RW)
modifications: disulfide 1-7
SMILES: N=C(N)NCCC[C@@H]1NC(=O)[C@@H](Cc2ccccc2)NC(=O)[C@H](Cc2c[nH]cn2)NC(=O)CNC(=O)[C@@H]2CSSC[C@H](NC(=O)[C@H](Cc3c[nH]c4ccccc34)NC1=O)C(=O)NCC(=O)N[C@@H](Cc1c[nH]cn1)C(=O)N[C@H](Cc1ccccc1)C(=O)N[C@@H](CCCNC(=N)N)C(=O)N[C@@H](Cc1c[nH]c3ccccc13)C(=O)N2
notes: also called c[c[Cys-Gly-His-D-Phe-Arg-Trp-Cys]-Gly-His-D-Phe-Arg-Trp]
B2: Chem. 17 (peptide)
peptide: cyclo(CAH[dF][Dab]WCAH[dF][Dab]W)
modifications: disulfide 1-7
SMILES: C[C@@H]1NC(=O)[C@@H]2CSSC[C@H](NC(=O)[C@H](Cc3c[nH]c4ccccc34)NC(=O)[C@H](CCN)NC(=O)[C@@H](Cc3ccccc3)NC(=O)[C@H](Cc3c[nH]cn3)NC1=O)C(=O)N[C@@H](C)C(=O)N[C@@H](Cc1c[nH]cn1)C(=O)N[C@H](Cc1ccccc1)C(=O)N[C@@H](CCN)C(=O)N[C@@H](Cc1c[nH]c3ccccc13)C(=O)N2
notes: also called c[c[Cys-Ala-His-D-Phe-Dab-Trp-Cys]-Ala-His-D-Phe-Dab-Trp]
B3: Chem. 93 (peptide)
peptide: cyclo(CPH[dF]HW[Pen]AKKKR)
modifications: disulfide 1-7
SMILES: C[C@@H]1NC(=O)[C@H]2NC(=O)[C@H](Cc3c[nH]c4ccccc34)NC(=O)[C@H](Cc3c[nH]cn3)NC(=O)[C@@H](Cc3ccccc3)NC(=O)[C@H](Cc3c[nH]cn3)NC(=O)[C@@H]3CCCN3C(=O)[C@H](CSSC2(C)C)NC(=O)[C@H](CCCNC(=N)N)NC(=O)[C@H](CCCCN)NC(=O)[C@H](CCCCN)NC(=O)[C@H](CCCCN)NC1=O
notes: also called c[c[Cys-Pro-His-D-Phe-His-Trp-Pen]-Ala-Lys-Lys-Lys-Arg]
B4: Chem. 15 (peptide)
peptide: cyclo(CAH[dF]KWCAH[dF]KW)
modifications: disulfide 1-7
SMILES: C[C@@H]1NC(=O)[C@@H]2CSSC[C@H](NC(=O)[C@H](Cc3c[nH]c4ccccc34)NC(=O)[C@H](CCCCN)NC(=O)[C@@H](Cc3ccccc3)NC(=O)[C@H](Cc3c[nH]cn3)NC1=O)C(=O)N[C@@H](C)C(=O)N[C@@H](Cc1c[nH]cn1)C(=O)N[C@H](Cc1ccccc1)C(=O)N[C@@H](CCCCN)C(=O)N[C@@H](Cc1c[nH]c3ccccc13)C(=O)N2
notes: also called c[c[Cys-Ala-His-D-Phe-Lys-Trp-Cys]-Ala-His-D-Phe-Lys-Trp]
B5: Chem. 92 (peptide)
peptide: cyclo([Pen]PH[dF]HWCAKKKR)
modifications: disulfide 1-7
SMILES: C[C@@H]1NC(=O)[C@@H]2CSSC(C)(C)[C@H](NC(=O)[C@H](CCCNC(=N)N)NC(=O)[C@H](CCCCN)NC(=O)[C@H](CCCCN)NC(=O)[C@H](CCCCN)NC1=O)C(=O)N1CCC[C@H]1C(=O)N[C@@H](Cc1c[nH]cn1)C(=O)N[C@H](Cc1ccccc1)C(=O)N[C@@H](Cc1c[nH]cn1)C(=O)N[C@@H](Cc1c[nH]c3ccccc13)C(=O)N2
notes: also called c[c[Pen-Pro-His-D-Phe-His-Trp-Cys]-Ala-Lys-Lys-Lys-Arg]
B6: Chem. 103 (peptide)
peptide: cyclo(C[Ser(ΨH,HPro)]H[dF]HWCAKKKW)
modifications: disulfide 1-7
SMILES: C[C@@H]1NC(=O)[C@@H]2CSSC[C@H](NC(=O)[C@H](Cc3c[nH]c4ccccc34)NC(=O)[C@H](CCCCN)NC(=O)[C@H](CCCCN)NC(=O)[C@H](CCCCN)NC1=O)C(=O)N1COC[C@H]1C(=O)N[C@@H](Cc1c[nH]cn1)C(=O)N[C@H](Cc1ccccc1)C(=O)N[C@@H](Cc1c[nH]cn1)C(=O)N[C@@H](Cc1c[nH]c3ccccc13)C(=O)N2
notes: also called c[c[Cys-OXA-His-D-Phe-His-Trp-Cys]-Ala-Lys-Lys-Lys-Trp]
B7: Chem. 104 (peptide)
peptide: cyclo(C[Thz]H[dF]HWCAA[Lys(CH2CO2H)2]AW)
modifications: disulfide 1-7
SMILES: C[C@@H]1NC(=O)[C@H](C)NC(=O)[C@@H]2CSSC[C@H](NC(=O)[C@H](Cc3c[nH]c4ccccc34)NC(=O)[C@H](C)NC(=O)[C@H](CCCCN(CC(=O)O)CC(=O)O)NC1=O)C(=O)N1CSC[C@H]1C(=O)N[C@@H](Cc1c[nH]cn1)C(=O)N[C@H](Cc1ccccc1)C(=O)N[C@@H](Cc1c[nH]cn1)C(=O)N[C@@H](Cc1c[nH]c3ccccc13)C(=O)N2
notes: also called c[c[Cys-THAZ-His-D-Phe-His-Trp-Cys]-Ala-Ala-Lys(CH2COOH)2-Ala-Trp]
B8: Chem. 16 (peptide)
peptide: cyclo(CAH[dF][Orn]WCAH[dF][Orn]W)
modifications: disulfide 1-7
SMILES: C[C@@H]1NC(=O)[C@@H]2CSSC[C@H](NC(=O)[C@H](Cc3c[nH]c4ccccc34)NC(=O)[C@H](CCCN)NC(=O)[C@@H](Cc3ccccc3)NC(=O)[C@H](Cc3c[nH]cn3)NC1=O)C(=O)N[C@@H](C)C(=O)N[C@@H](Cc1c[nH]cn1)C(=O)N[C@H](Cc1ccccc1)C(=O)N[C@@H](CCCN)C(=O)N[C@@H](Cc1c[nH]c3ccccc13)C(=O)N2
notes: also called c[c[Cys-Ala-His-D-Phe-Orn-Trp-Cys]-Ala-His-D-Phe-Orn-Trp]
B9: Chem. 105 (peptide)
peptide: cyclo(C[Thz]H[dF]HWCAEEAW)
modifications: disulfide 1-7
SMILES: C[C@@H]1NC(=O)[C@H](CCC(=O)O)NC(=O)[C@H](CCC(=O)O)NC(=O)[C@H](C)NC(=O)[C@@H]2CSSC[C@H](NC(=O)[C@H](Cc3c[nH]c4ccccc34)NC1=O)C(=O)N1CSC[C@H]1C(=O)N[C@@H](Cc1c[nH]cn1)C(=O)N[C@H](Cc1ccccc1)C(=O)N[C@@H](Cc1c[nH]cn1)C(=O)N[C@@H](Cc1c[nH]c3ccccc13)C(=O)N2
notes: also called c[c[Cys-THAZ-His-D-Phe-His-Trp-Cys]-Ala-Glu-Glu-Ala-Trp]
B10: Chem. 108 (peptide)
peptide: cyclo(C[Thz]H[dF]HWCAEDAW)
modifications: disulfide 1-7
SMILES: C[C@@H]1NC(=O)[C@H](CC(=O)O)NC(=O)[C@H](CCC(=O)O)NC(=O)[C@H](C)NC(=O)[C@@H]2CSSC[C@H](NC(=O)[C@H](Cc3c[nH]c4ccccc34)NC1=O)C(=O)N1CSC[C@H]1C(=O)N[C@@H](Cc1c[nH]cn1)C(=O)N[C@H](Cc1ccccc1)C(=O)N[C@@H](Cc1c[nH]cn1)C(=O)N[C@@H](Cc1c[nH]c3ccccc13)C(=O)N2
notes: also called c[c[Cys-THAZ-His-D-Phe-His-Trp-Cys]-Ala-Glu-Asp-Ala-Trp]
B11: Chem. 106 (peptide)
peptide: cyclo(C[Thz]H[dF]HWCADDAW)
modifications: disulfide 1-7
SMILES: C[C@@H]1NC(=O)[C@H](CC(=O)O)NC(=O)[C@H](CC(=O)O)NC(=O)[C@H](C)NC(=O)[C@@H]2CSSC[C@H](NC(=O)[C@H](Cc3c[nH]c4ccccc34)NC1=O)C(=O)N1CSC[C@H]1C(=O)N[C@@H](Cc1c[nH]cn1)C(=O)N[C@H](Cc1ccccc1)C(=O)N[C@@H](Cc1c[nH]cn1)C(=O)N[C@@H](Cc1c[nH]c3ccccc13)C(=O)N2
notes: also called c[c[Cys-THAZ-His-D-Phe-His-Trp-Cys]-Ala-Asp-Asp-Ala-Trp]
B12: Chem. 107 (peptide)
peptide: cyclo(C[Thz]H[dF]HWCADEAW)
modifications: disulfide 1-7
SMILES: C[C@@H]1NC(=O)[C@H](CCC(=O)O)NC(=O)[C@H](CC(=O)O)NC(=O)[C@H](C)NC(=O)[C@@H]2CSSC[C@H](NC(=O)[C@H](Cc3c[nH]c4ccccc34)NC1=O)C(=O)N1CSC[C@H]1C(=O)N[C@@H](Cc1c[nH]cn1)C(=O)N[C@H](Cc1ccccc1)C(=O)N[C@@H](Cc1c[nH]cn1)C(=O)N[C@@H](Cc1c[nH]c3ccccc13)C(=O)N2
notes: also called c[c[Cys-THAZ-His-D-Phe-His-Trp-Cys]-Ala-Asp-Glu-Ala-Trp]
B13: Chem. 94 (peptide)
peptide: cyclo(CPH[dF]R[Phe(3,4-(OMe)2)]CAKKKR)
modifications: disulfide 1-7
notes: also called c[c[Cys-Pro-His-D-Phe-Arg-3,4-DiMeO-Phe-Cys]-Ala-Lys-Lys-Lys-Arg]
B14: Chem. 98 (peptide)
peptide: cyclo(C[dP]H[dF]HWCAKKKW)
modifications: disulfide 1-7
notes: also called c[c[Cys-D-Pro-His-D-Phe-His-Trp-Cys]-Ala-Lys-Lys-Lys-Trp]
B15: Chem. 14 (peptide)
peptide: cyclo(CA[Hyp][dF]RWCA[Hyp][dF]RW)
modifications: disulfide 1-7
SMILES: C[C@@H]1NC(=O)[C@@H]2CSSC[C@H](NC(=O)[C@H](Cc3c[nH]c4ccccc34)NC(=O)[C@H](CCCNC(=N)N)NC(=O)[C@@H](Cc3ccccc3)NC(=O)[C@@H]3C[C@@H](O)CN3C1=O)C(=O)N[C@@H](C)C(=O)N1C[C@H](O)C[C@H]1C(=O)N[C@H](Cc1ccccc1)C(=O)N[C@@H](CCCNC(=N)N)C(=O)N[C@@H](Cc1c[nH]c3ccccc13)C(=O)N2
notes: also called c[c[Cys-Ala-Hyp-D-Phe-Arg-Trp-Cys]-Ala-Hyp-D-Phe-Arg-Trp]

What was measured:
[1] = biological target: T1, human melanocortin 4 receptor (human, UniProt P32245 1-332); experiment: cell-based or functional assay
[2] = biological target: human melanocortin 1 receptor (human, UniProt Q01726 1-317); experiment: cell-based or functional assay
[3] = biological target: T1, human melanocortin 4 receptor; experiment: competition with 125-NDP-α-MSH, BHK human MC4R membranes
How it was run: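 Competition binding used membranes from BHK cells stably expressing human MC4R with ¹²⁵I-NDP-α-MSH (apx. […] final), compound at 1 μM–0.001 nM. Incubation was 2 h at 25 °C in HEPES pH 7.0 buffer with CaCl₂, MgSO₄, EGTA, Tween 20 and 0.1% HSA or ovalbumin. Filter-bound radioactivity was fitted by non-linear regression.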

human melanocortin 1 receptor, sequence (Q01726 whole entry): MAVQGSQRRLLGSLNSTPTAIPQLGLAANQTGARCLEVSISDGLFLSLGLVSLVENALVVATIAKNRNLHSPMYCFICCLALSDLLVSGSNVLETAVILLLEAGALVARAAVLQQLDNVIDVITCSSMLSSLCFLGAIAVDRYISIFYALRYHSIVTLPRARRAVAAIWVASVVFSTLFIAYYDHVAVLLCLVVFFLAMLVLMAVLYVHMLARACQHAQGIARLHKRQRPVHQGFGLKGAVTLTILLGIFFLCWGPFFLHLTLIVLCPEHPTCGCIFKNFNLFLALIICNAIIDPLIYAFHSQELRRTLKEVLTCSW
T1 sequence (P32245 whole entry): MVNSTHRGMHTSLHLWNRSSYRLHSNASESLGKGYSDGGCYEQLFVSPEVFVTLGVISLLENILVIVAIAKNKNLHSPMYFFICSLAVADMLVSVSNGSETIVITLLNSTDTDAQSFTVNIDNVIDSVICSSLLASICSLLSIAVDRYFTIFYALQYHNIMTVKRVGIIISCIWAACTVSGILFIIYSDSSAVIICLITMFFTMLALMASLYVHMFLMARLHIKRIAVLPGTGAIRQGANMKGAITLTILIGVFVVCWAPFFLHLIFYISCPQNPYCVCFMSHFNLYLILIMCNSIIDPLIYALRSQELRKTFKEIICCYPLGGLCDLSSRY

Binder | MC4R cAMP EC50 [1] [nM] | MC1R cAMP EC50 [2] [nM] | Ki [3] [nM]
B1 | 0.01 | 1.54 | 0.07
B2 | 0.36 | 104 | 0.83
B3 | 0.04 | 18.2 | 0.03
B4 | 0.09 | 5.43 | 0.12
B5 | 0.13 | 47.1 | 0.04
B6 | 0.05 | > 70 | 0.06
B7 | 0.6 | > 100 | 8.87
B8 | 0.21 | > 1 | 0.34
B9 | 6.62 | > 100 | 43
B10 | 2.52 | > 100 | 23.3
B11 | 10.6 | > 100 | 42.8
B12 | 10.6 | > 100 | 39.1
B13 | 4.38 | 113 | 0.25
B14 | 2.7 | > 55 | 0.6
B15 | 3.55 | > 10 | 30.2
